Stoichiometry N data for two substances are collected here from article doi:10.64898/2025.12.08.693081.

Where two headings read alike, the source gives them in different places.

Common to all, as to test: cryo-EM structure
For assay [1], the target named is Angavokeley (AngV) fusion (F) protein ectodomain (Angavokeley virus (AngV)).
For assay [2] the target is unchanged. The source holds these as a separate data set.
Assay [3] concerns the target Hendravirus alpha2 -F protein (Hendra virus) (UniProt O89342).

As to “Angavokeley (AngV) fusion (F) protein ectodomain (domain or fragment)”, the stoichiometry N in assay [1] was found to be 6; in assay [2], 3.

In the case of “Hendravirus alpha2 -F protein (from UniProt O89342 27-494) (domain or fragment)”, the stoichiometry N in assay [3] was 6.

As usually defined, the stoichiometry N is a count of units in the complex or per binding partner.
